B1: SEQ ID NO: 47: mutant PfHPPD: 268A 270N 335P 336H 337S 340V 344Q 345M (protein)
chain: MADLYENPMGLMGFEFIEFASPTPGTLEPIFEIMGFTKVATHRSKNVHLYRQGEINLILNNEPNSIASYFAAEHGPSVCGMAFRVKDSQKAYNRALELGAQPIHIDTGPMELNLPAIKGIGGAPLYLIDRFGEGSSIYDIDFVYLEGVERNPVGAGLKVIDHLTHNVYRGRMVYWANFYEKLFNFREARYFDIKGEYTGLTSKAMSAPDGMIRIPLNEESSKGAGQIEEFLMQFNGEGIQHVAFLTDDLVKTWDALKKIGMRFMTAPADNYYEMLEGRLPDHGEPVDQLQARGILLDGSSVEGDKRLLLQIFSETLMGPVFFEFIQRKGDDGFGPHSFKVLFEQMERDQVRRGVLTAD
modifications: mutant HPPD polypeptide
notes: mutant PfHPPD: 268A 270N 335P 336H 337S 340V 344Q 345M
B2: 43 (protein)
chain: MADLYENPMGLMGFEFIEFASPTPGTLEPIFEIMGFTKVATHRSKNVHLYRQGEINLILNNEPNSIASYFAAEHGPSVCGMAFRVKDSQKAYNRALELGAQPIHIDTGPMELNLPAIKGIGGAPLYLIDRFGEGSSIYDIDFVYLEGVERNPVGAGLKVIDHLTHNVYRGRMVYWANFYEKLFNFREARYFDIKGEYTGLTSKAMSAPDGMIRIPLNEESSKGAGQIEEFLMQFNGEGIQHVAFLTDDLVKTWDALKKIGMRFMTAPADEYYEMLEGRLPDHGEPVDQLQARGILLDGSSVEGDKRLLLQIFSETLMGPVFFEFIQRKGDDGFGPHSFKVLFEQVERDQVRRGVLTAD
modifications: mutant HPPD polypeptide
B3: 42 (protein)
chain: MADLYENPMGLMGFEFIEFASPTPGTLEPIFEIMGFTKVATHRSKNVHLYRQGEINLILNNEPNSIASYFAAEHGPSVCGMAFRVKDSQKAYNRALELGAQPIHIDTGPMELNLPAIKGIGGAPLYLIDRFGEGSSIYDIDFVYLEGVERNPVGAGLKVIDHLTHNVYRGRMVYWANFYEKLFNFREARYFDIKGEYTGLTSKAMSAPDGMIRIPLNEESSKGAGQIEEFLMQFNGEGIQHVAFLTDDLVKTWDALKKIGMRFMTAPSDEYYEMLEGRLPDHGEPVDQLQARGILLDGSSVEGDKRLLLQIFSETLMGPVFFEFIQRKGDDGFGPHSFKVLFESVERDQVRRGVLTAD
modifications: mutant HPPD polypeptide
B4: 45 (protein)
chain: MADLYENPMGLMGFEFIEFASPTPGTLEPIFEIMGFTKVATHRSKNVHLYRQGEINLILNNEPNSIASYFAAEHGPSVCGMAFRVKDSQKAYNRALELGAQPIHIDTGPMELNLPAIKGIGGAPLYLIDRFGEGSSIYDIDFVYLEGVERNPVGAGLKVIDHLTHNVYRGRMVYWANFYEKLFNFREARYFDIKGEYTGLTSKAMSAPDGMIRIPLNEESSKGAGQIEEFLMQFNGEGIQHVAFLTDDLVKTWDALKKIGMRFMTAPADNYYEMLEGRLPDHGEPVDQLQARGILLDGSSVEGDKRLLLQIFSETLMGPVFFEFIQRKGDDGFGPHSFKVLFEQVERDQVRRGVLTAD
modifications: mutant HPPD polypeptide
B5: SEQ ID NO: 2: prior art mutant HPPD polypeptide (WO2014/043435): 335P 336W 339A 340Q (protein)
chain: MADLYENPMGLMGFEFIEFASPTPGTLEPIFEIMGFTKVATHRSKNVHLYRQGEINLILNNEPNSIASYFAAEHGPSVCGMAFRVKDSQKAYNRALELGAQPIHIDTGPMELNLPAIKGIGGAPLYLIDRFGEGSSIYDIDFVYLEGVERNPVGAGLKVIDHLTHNVYRGRMVYWANFYEKLFNFREARYFDIKGEYTGLTSKAMSAPDGMIRIPLNEESSKGAGQIEEFLMQFNGEGIQHVAFLTDDLVKTWDALKKIGMRFMTAPPDTYYEMLEGRLPDHGEPVDQLQARGILLDGSSVEGDKRLLLQIFSETLMGPVFFEFIQRKGDDGFGPWNFAQLFESIERDQVRRGVLTAD
modifications: mutant HPPD polypeptide
notes: prior art mutant HPPD polypeptide (WO2014/043435): 335P 336W 339A 340Q
B6: SEQ ID NO: 66: mutant PfHPPD: 213K 268A 270S 335P 336H 337S 340V 344Q 345M (protein)
chain: MADLYENPMGLMGFEFIEFASPTPGTLEPIFEIMGFTKVATHRSKNVHLYRQGEINLILNNEPNSIASYFAAEHGPSVCGMAFRVKDSQKAYNRALELGAQPIHIDTGPMELNLPAIKGIGGAPLYLIDRFGEGSSIYDIDFVYLEGVERNPVGAGLKVIDHLTHNVYRGRMVYWANFYEKLFNFREARYFDIKGEYTGLTSKAMSAPDGMIKIPLNEESSKGAGQIEEFLMQFNGEGIQHVAFLTDDLVKTWDALKKIGMRFMTAPADSYYEMLEGRLPDHGEPVDQLQARGILLDGSSVEGDKRLLLQIFSETLMGPVFFEFIQRKGDDGFGPHSFKVLFEQMERDQVRRGVLTAD
modifications: mutant HPPD polypeptide
notes: mutant PfHPPD: 213K 268A 270S 335P 336H 337S 340V 344Q 345M
B7: 44 (protein)
chain: MADLYENPMGLMGFEFIEFASPTPGTLEPIFEIMGFTKVATHRSKNVHLYRQGEINLILNNEPNSIASYFAAEHGPSVCGMAFRVKDSQKAYNRALELGAQPIHIDTGPMELNLPAIKGIGGAPLYLIDRFGEGSSIYDIDFVYLEGVERNPVGAGLKVIDHLTHNVYRGRMVYWANFYEKLFNFREARYFDIKGEYTGLTSKAMSAPDGMIRIPLNEESSKGAGQIEEFLMQFNGEGIQHVAFLTDDLVKTWDALKKIGMRFMTAPGDEYYEMLEGRLPDHGEPVDQLQARGILLDGSSVEGDKRLLLQIFSETLMGPVFFEFIQRKGDDGFGPHSFKVLFEQVERDQVRRGVLTAD
modifications: mutant HPPD polypeptide

Tests used:
[1] = test system: HPPD polypeptides; assay: coupled HPPD activity assay: turnover and residual turnover in crude extracts; type: biochemical, Pseudomonas fluorescens; settings: for Turnover: absence of Cmpd. 1, kinetic changes in absorbance (OD) at 320 nm, 30 min; for Turnover / Residual turnover: high substrate concentration; for Residual turnover: presence of 100 μM Cmpd. 1, changes in absorbance (OD) at 320 nm; for turnover / residual turnover in the presence of Cmpd. 1 compared with a reference HPPD polypeptide, in words: comparison with the reference or parent polypeptide; for Residual turnover [%]: 100 μM Cmpd. 1, signal change with inhibitor divided by signal change without inhibitor
[2] = test system: T0 soybean plants; assay: greenhouse spray test, leaf area damage score; type: in vivo; settings: for leaf area damage score, 25th percentile / leaf area damage score, 75th percentile / leaf area damage score, 90th percentile / leaf area damage score, Median: transgenic soybean T0 events, five days after Cmpd. 1 at 300 g AI/ha; for leaf area damage score, 25th percentile: scale 0 (no damage) to 100 (complete bleaching)
Text: Tolerant green shoots were transferred to rooting media or grafted. Rooted plantlets were transferred to the greenhouse after an acclimation period. Plants containing the transgene were then sprayed with HPPD inhibitor herbicides, as for example with mesotrione at a rate of 300-600 g AI/ha, or with Cmpd. 1 (2-chloro-3-(methylsulfanyl)-N-(1-methyl-1H-tetrazol-5-yl)-4-(trifluoromethyl)-benzamide) at a rate of 150 g-300 g AI/ha supplemented with ammonium sulfate and methyl ester rapeseed oil. Five to ten days after the application, the symptoms due to the application of the herbicide were evaluated and compared to the symptoms observed on wild-type plants under the same conditions. For example, T0 soybean plants having a “plant expression cassette”, which includes an HPPD inhibitor tolerant HPPD polypeptide of the present invention, were tested towards the tolerance of Cmpd. 1. Prior greenhouse trials with the transgenic plants, soybean transformants were routinely analyzed for the expression and presence of the transgenes using the ELISA protein detection method (see detailed description under item D and H). Only plants recovering in the selection media and having a detectable HPPD transgene protein expression were used for the herbicide tolerance analysis. A DeVries Tracker Sprayer was calibrated prior to each spraying. The chemical formulation used for Cmpd. 1 was supplemented with ammonium sulfate and methylated rape seed oil. Spray tests were conducted with a concentration, which equals to 300 grams AI per hectare (300 g AI/ha).
In greenhouse trials, independent T0 soybean events containing an exemplary mutant HPPD polypeptide were sprayed with the HPPD inhibitor herbicide Cmpd. 1 (2-chloro-3-(methylsulfanyl)-N-(1-methyl-1H-tetrazol-5-yl)-4-(trifluoromethyl)benzamide) at the rate of 300 grams AI/ha, supplemented with ammonium sulfate and methyl ester rapeseed oil. Five days after the application, the leaf damaged area due to the HPPD inhibitor herbicide is scored in a scale from 0 (no damage) to 100 (complete bleaching). Under those conditions, the wild-type plants were completely bleached and their damage scores were in the 95-100 range.
Table 5 presents the distribution of the HPPD inhibitor herbicide damage score data as percentile for exemplary mutant HPPD inhibitor herbicide tolerant polypeptides (SEQ ID NOs). The percentiles normalize ranks of the damage score from an individual plant in a population. […] The median is the 50th percentile. Half the values had higher damage scores; half had lower damage scores. The value of the 75th and 90th percentile is the damage score where 75% and 90% of the soybean events had lower damage scores, respectively. The difference between the 75th and 25th percentile is called the interquartile range and a marker to quantify scattering in the population. All constructs had only one single cassette insertion in the soybean genome.

Row | Molecule | Turnover [1] | Residual turnover [1] | leaf damage score of wild-type plants ([2]; wild-type soybean plants, 300 grams AI/ha, five days after application, scale 0-100) | turnover / residual turnover in the presence of Cmpd. 1 compared with a reference HPPD polypeptide, in words [1] | leaf area damage score, 25th percentile [2] | leaf area damage score, 75th percentile ([2]; scale 0-100) | leaf area damage score, 90th percentile ([2]; scale 0-100) | leaf area damage score, Median ([2]; scale 0-100) | Residual turnover [%] [1] [%]
1 | CSc1c(C(F)(F)F)ccc(C(=O)Nc2nnnn2C)c1Cl [Cmpd. 1, 2-chloro-3-(methylsulfanyl)-N-(1-methyl-1H-tetrazol-5-yl)-4-(trifluoromethyl)benzamide, reference compound] | 0.203 | 0.021 | 95-100 | – | – | – | – | – | –
2 | B1 | – | – | – | significant increase in the residual turnover | 5.0 | 15.0 | 51.0 | 15.0 | –
3 | B2 | 0.190 | 0.110 | – | – | – | – | – | – | 58
4 | B3 | 0.278 | 0.111 | – | – | – | – | – | – | 40
5 | B4 | 0.214 | 0.121 | – | – | – | – | – | – | 57
6 | B5 | – | – | – | – | 15.0 | 45.0 | 87.0 | 20.0 | –
7 | B6 | – | – | – | increase significantly the turnover and the residual turnover | 5.0 | 25.0 | 41.0 | 10.0 | –
8 | B7 | 0.036 | – | – | – | – | – | – | – | –

— patent US11180770B2, “HPPD variants and methods of use” (BASF Agricultural Solutions Seed US LLC, priority 2017, dated 2021)
